Experimental data published in patent publication US20260098059A1 (ENDOMET BIOSCIENCES, published 2026).
Several values for one entry are separate records, joined by “and”; a condition that tells them apart may be missing. Equal entries are not always repeated. Bridges are numbered along the chain shown (N, C = ends). Where no end group is shown, it is not given here. [ ]: non-standard residue; d: D form. Chg = N[C@H](C(=O)O)C1CCCCC1; NMeA = CN[C@@H](C)C(=O)O

T1: β-catenin (UniProt P35222 134-665, limits assumed, biotinylated in the SPR and plate assays)
T1 sequence (looked up): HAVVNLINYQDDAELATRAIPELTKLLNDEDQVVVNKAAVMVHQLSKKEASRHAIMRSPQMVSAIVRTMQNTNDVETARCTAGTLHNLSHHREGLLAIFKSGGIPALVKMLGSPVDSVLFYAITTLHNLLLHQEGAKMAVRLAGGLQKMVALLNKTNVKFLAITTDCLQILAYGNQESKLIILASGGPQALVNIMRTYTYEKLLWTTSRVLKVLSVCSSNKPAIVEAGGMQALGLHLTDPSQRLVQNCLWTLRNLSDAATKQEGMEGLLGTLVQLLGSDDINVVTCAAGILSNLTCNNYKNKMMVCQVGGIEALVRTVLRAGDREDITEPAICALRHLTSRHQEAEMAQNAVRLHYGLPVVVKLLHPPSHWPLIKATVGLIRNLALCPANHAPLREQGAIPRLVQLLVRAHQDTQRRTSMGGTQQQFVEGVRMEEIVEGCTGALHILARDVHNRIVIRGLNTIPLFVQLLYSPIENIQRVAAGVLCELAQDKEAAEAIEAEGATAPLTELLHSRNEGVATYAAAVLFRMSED


How the values were obtained:
β-catenin [1] = target: T1, β-catenin; assay: cell-based or functional assay
β-catenin [2] = target: T1, β-catenin; assay: competitive FP
Procedure, shortened: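 Competitive fluorescence polarization with inhibitor peptide serially diluted from 10 nM to 30 uM; polarization read at 470 nm excitation, 520 nm emission. Experiments performed three times.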

| Binder | Wnt Reporter EC50 (β-catenin [1]) | Kd (β-catenin [2]) | Proliferation IC50, Endo cells (β-catenin [1]) [µM] | Proliferation IC50, Wnt dependent cells (β-catenin [1]) [µM] |
| --- | --- | --- | --- | --- |
| Ac-WFLIAFWG-OH [SEQ ID NO: 196] | ≤ 7.5 µM | > 0.4 µM and ≤ 1 µM |  |  |
| Ac-WFLICFWG-OH [SEQ ID NO: 194] | ≤ 7.5 µM | > 0.4 µM and ≤ 1 µM |  |  |
| Ac-WILISFWG-OH [SEQ ID NO: 195] | ≤ 7.5 µM | ≤ 0.4 µM |  |  |
| Ac-WFLISFWG-OH (also called Hit 5) [SEQ ID NO: 220] | ≤ 7.5 µM | > 0.4 µM and ≤ 1 µM |  |  |
| KLWALIXAWD (HELM PEPTIDE1{[ac].K.[Nle].W.[Cha].L.I.[Abu].A.W.D}$PEPTIDE1,PEPTIDE1,2:R3-11:R3$$$V2.0; SMILES CCCC[C@@H]1NC(=O)[C@@H](NC(C)=O)CCCCNC(=O)C[C@@H](C(=O)O)NC(=O)[C@H](Cc2c[nH]c3ccccc23)NC(=O)[C@H](C)NC(=O)[C@H](CC)NC(=O)[C@H]([C@@H](C)CC)NC(=O)[C@H](CC(C)C)NC(=O)[C@H](CC2CCCCC2)NC(=O)[C@H](Cc2c[nH]c3ccccc23)NC1=O, also called Cyclo-acetyl-K*Nle-W-3-cyclohexyl-L-alanine-LI-(amino butyric acid-AWD*-COOH)) [Peptide 2 (SEQ ID NO: 215)] | > 30 µM | ≤ 0.4 µM | > 30 |  |
| Ac-MWFLISFWG-OH [SEQ ID NO: 219] | ≤ 7.5 µM | > 0.4 µM and ≤ 1 µM |  |  |
| KWALIXAWD (HELM PEPTIDE1{[ac].K.W.[Cha].L.I.[Abu].A.W.D}$PEPTIDE1,PEPTIDE1,2:R3-10:R3$$$V2.0; SMILES CC[C@@H]1NC(=O)[C@H]([C@@H](C)CC)NC(=O)[C@H](CC(C)C)NC(=O)[C@H](CC2CCCCC2)NC(=O)[C@H](Cc2c[nH]c3ccccc23)NC(=O)[C@@H](NC(C)=O)CCCCNC(=O)C[C@@H](C(=O)O)NC(=O)[C@H](Cc2c[nH]c3ccccc23)NC(=O)[C@H](C)NC1=O) [SEQ ID NO: 261] | > 7.5 µM and ≤ 15 µM | > 0.4 µM and ≤ 1 µM | 7.7 | 4 |
| KWGLIXAWD (HELM PEPTIDE1{[ac].K.W.[O=C([C@@H](N[*:1])C1CCCCC1)[*:2]].L.I.[Abu].A.W.D}$PEPTIDE1,PEPTIDE1,2:R3-10:R3$$$V2.0; SMILES CC[C@@H]1NC(=O)[C@H]([C@@H](C)CC)NC(=O)[C@H](CC(C)C)NC(=O)[C@H](C2CCCCC2)NC(=O)[C@H](Cc2c[nH]c3ccccc23)NC(=O)[C@@H](NC(C)=O)CCCCNC(=O)C[C@@H](C(=O)O)NC(=O)[C@H](Cc2c[nH]c3ccccc23)NC(=O)[C@H](C)NC1=O) [SEQ ID NO: 262] |  | > 0.4 µM and ≤ 1 µM | 26.3 | 5 |
| WWESILDEHVQRVWG (HELM PEPTIDE1{[meW].[meW].E.S.I.L.D.E.H.V.Q.R.V.W.G.[am]}$$$$V2.0; SMILES CC[C@H](C)[C@H](NC(=O)[C@H](CO)NC(=O)[C@H](CCC(=O)O)NC(=O)[C@H](Cc1c[nH]c2ccccc12)N(C)C(=O)[C@H](Cc1c[nH]c2ccccc12)NC)C(=O)N[C@@H](CC(C)C)C(=O)N[C@@H](CC(=O)O)C(=O)N[C@@H](CCC(=O)O)C(=O)N[C@@H](Cc1c[nH]cn1)C(=O)N[C@H](C(=O)N[C@@H](CCC(N)=O)C(=O)N[C@@H](CCCNC(=N)N)C(=O)N[C@H](C(=O)N[C@@H](Cc1c[nH]c2ccccc12)C(=O)NCC(N)=O)C(C)C)C(C)C) [SEQ ID NO: 37] | > 30 µM | ≤ 0.4 µM |  |  |
| WAQKILDEHGQRVWG (HELM PEPTIDE1{[ac].W.[meA].Q.K.I.L.D.E.H.[O=C([C@@H](N[*:1])C1CCCCC1)[*:2]].Q.R.V.W.G.[am]}$PEPTIDE1,PEPTIDE1,5:R3-9:R3$$$V2.0; SMILES CC[C@H](C)[C@@H]1NC(=O)[C@@H](NC(=O)[C@H](CCC(N)=O)NC(=O)[C@H](C)N(C)C(=O)[C@H](Cc2c[nH]c3ccccc23)NC(C)=O)CCCCNC(=O)CC[C@@H](C(=O)N[C@@H](Cc2c[nH]cn2)C(=O)N[C@H](C(=O)N[C@@H](CCC(N)=O)C(=O)N[C@@H](CCCNC(=N)N)C(=O)N[C@H](C(=O)N[C@@H](Cc2c[nH]c3ccccc23)C(=O)NCC(N)=O)C(C)C)C2CCCCC2)NC(=O)[C@H](CC(=O)O)NC(=O)[C@H](CC(C)C)NC1=O) [SEQ ID NO: 404] | > 30 µM | ≤ 0.4 µM |  |  |
| WAQKILDEHVQRVWG (HELM PEPTIDE1{W.[meA].Q.K.I.L.D.E.H.V.Q.R.V.W.G.[am]}$PEPTIDE1,PEPTIDE1,4:R3-8:R3$$$V2.0; SMILES CC[C@H](C)[C@@H]1NC(=O)[C@@H](NC(=O)[C@H](CCC(N)=O)NC(=O)[C@H](C)N(C)C(=O)[C@@H](N)Cc2c[nH]c3ccccc23)CCCCNC(=O)CC[C@@H](C(=O)N[C@@H](Cc2c[nH]cn2)C(=O)N[C@H](C(=O)N[C@@H](CCC(N)=O)C(=O)N[C@@H](CCCNC(=N)N)C(=O)N[C@H](C(=O)N[C@@H](Cc2c[nH]c3ccccc23)C(=O)NCC(N)=O)C(C)C)C(C)C)NC(=O)[C@H](CC(=O)O)NC(=O)[C@H](CC(C)C)NC1=O) [SEQ ID NO: 401] | > 30 µM | > 0.4 µM and ≤ 1 µM |  |  |
| WAQKILDEHVQRVWG (HELM PEPTIDE1{[ac].W.[meA].Q.K.I.L.D.E.H.V.Q.R.V.W.G.[am]}$PEPTIDE1,PEPTIDE1,5:R3-9:R3$$$V2.0; SMILES CC[C@H](C)[C@@H]1NC(=O)[C@@H](NC(=O)[C@H](CCC(N)=O)NC(=O)[C@H](C)N(C)C(=O)[C@H](Cc2c[nH]c3ccccc23)NC(C)=O)CCCCNC(=O)CC[C@@H](C(=O)N[C@@H](Cc2c[nH]cn2)C(=O)N[C@H](C(=O)N[C@@H](CCC(N)=O)C(=O)N[C@@H](CCCNC(=N)N)C(=O)N[C@H](C(=O)N[C@@H](Cc2c[nH]c3ccccc23)C(=O)NCC(N)=O)C(C)C)C(C)C)NC(=O)[C@H](CC(=O)O)NC(=O)[C@H](CC(C)C)NC1=O) [SEQ ID NO: 402] | > 30 µM | ≤ 0.4 µM |  |  |
| WAQKILDDHGQRVWG (HELM PEPTIDE1{[ac].W.[meA].Q.K.I.L.D.D.H.[O=C([C@@H](N[*:1])C1CCCCC1)[*:2]].Q.R.V.W.G.[am]}$PEPTIDE1,PEPTIDE1,5:R3-9:R3$$$V2.0; SMILES CC[C@H](C)[C@@H]1NC(=O)[C@@H](NC(=O)[C@H](CCC(N)=O)NC(=O)[C@H](C)N(C)C(=O)[C@H](Cc2c[nH]c3ccccc23)NC(C)=O)CCCCNC(=O)C[C@@H](C(=O)N[C@@H](Cc2c[nH]cn2)C(=O)N[C@H](C(=O)N[C@@H](CCC(N)=O)C(=O)N[C@@H](CCCNC(=N)N)C(=O)N[C@H](C(=O)N[C@@H](Cc2c[nH]c3ccccc23)C(=O)NCC(N)=O)C(C)C)C2CCCCC2)NC(=O)[C@H](CC(=O)O)NC(=O)[C@H](CC(C)C)NC1=O) [SEQ ID NO: 430] | > 15 µM and ≤ 22.5 µM | ≤ 0.4 µM |  |  |
| W[NMeA]QKILDDH[Chg]QRVWG-NH2 (lactam 4-8; not fully specified (N-terminus); printed as H17C8C(O)NH-W-NMeA-QK*ILDD*H-Chg-QRVWG-NH2) [SEQ ID NO: 431] | ≤ 7.5 µM | ≤ 0.4 µM |  |  |
